Reference: paper PMC6773851, “Identification of protein-protein and ribonucleoprotein complexes containing Hfq” (Scientific Reports, 2019)

How the values were obtained:
[1] = tested on: HfqH6 (Ec-HfqHis6) (Escherichia coli); experiment: MST; conditions: Hill coefficient 4.0; concentration calculated with 1 kb average length; MST: 50 mM Tris-HCl pH 7.6, 50 mM NH4Cl, 1 mM EDTA, 0.1% Triton X100, 5% glycerol; room temperature; 100 nM labelled HfqH6. Total E. coli RNA (EC50 3.2e-7 M …)
[2] = molecular target: T1, Ec-HfqHis6 (purified) (E. coli, UniProt P0A6X3 1-102); experiment: MST; as the MST without RNA, but in the presence of E. coli total RNA; apparent affinity; conditions: both partners purified
T1 construct: In MST labelled with a fluorescent dye (Protein Labeling Kit RED-NHS); also called HfqH6; purified Hfq

[3] = molecular target: T1, Ec-HfqHis6 (purified); experiment: MST; one partner labelled (RED-NHS) and constant (HfqH6 100 nM), the other titrated; standard buffer (50 mM Tris-HCl pH7.6, 50 mM NH4Cl, 1 mM EDTA, 0.1% Triton X100, 5% glycerol); room temperature; Hill model; without RNA; conditions: both partners purified

T1 sequence (P0A6X3 whole entry): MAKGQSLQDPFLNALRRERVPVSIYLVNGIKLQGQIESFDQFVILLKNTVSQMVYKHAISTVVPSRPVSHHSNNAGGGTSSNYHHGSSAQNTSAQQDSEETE

Molecule: poly(A)
- K half [1]: 600 nM

B1: Poly(A)polymerase, PAP (purified) (natural protein, E. coli, UniProt P0ABF1 11-465, looked up)
chain: KVLSREESEAEQAVARPQVTVIPREQHAISRKDISENALKVMYRLNKAGYEAWLVGGGVRDLLLGKKPKDFDVTTNATPEQVRKLFRNCRLVGRRFRLAHVMFGPEIIEVATFRGHHEGNVSDRTTSQRGQNGMLLRDNIFGSIEEDAQRRDFTINSLYYSVADFTVRDYVGGMKDLKDGVIRLIGNPETRYREDPVRMLRAVRFAAKLGMRISPETAEPIPRLATLLNDIPPARLFEESLKLLQAGYGYETYKLLCEYHLFQPLFPTITRYFTENGDSPMERIIEQVLKNTDTRIHNDMRVNPAFLFAAMFWYPLLETAQKIAQESGLTYHDAFALAMNDVLDEACRSLAIPKRLTTLTRDIWQLQLRMSRRQGKRAWKLLEHPKFRAAYDLLALRAEVERNAELQRLVKWWGEFQVSAPPDQKGMLNELDEEPSPRRRTRRPRKRAPRREGTA
notes: Poly(A) polymerase I, E. coli
- fold decrease of the apparent affinity in the presence of total RNA [2]: ~10 fold
- EC50 [3]: < 10 µM
